T1: human CD133 (GenBank Accession O43490) (human, UniProt O43490 20-865)
T1 construct: Full-length human CD133 overexpressed in HEK293-CD133 cells, or endogenous on Caco-2, HPAC, PL45, RWP-1 and GBM cells; In the Western blots the same protein is denatured in whole cell lysate; also called Prominin-1; cell surface CD133
T1 sequence: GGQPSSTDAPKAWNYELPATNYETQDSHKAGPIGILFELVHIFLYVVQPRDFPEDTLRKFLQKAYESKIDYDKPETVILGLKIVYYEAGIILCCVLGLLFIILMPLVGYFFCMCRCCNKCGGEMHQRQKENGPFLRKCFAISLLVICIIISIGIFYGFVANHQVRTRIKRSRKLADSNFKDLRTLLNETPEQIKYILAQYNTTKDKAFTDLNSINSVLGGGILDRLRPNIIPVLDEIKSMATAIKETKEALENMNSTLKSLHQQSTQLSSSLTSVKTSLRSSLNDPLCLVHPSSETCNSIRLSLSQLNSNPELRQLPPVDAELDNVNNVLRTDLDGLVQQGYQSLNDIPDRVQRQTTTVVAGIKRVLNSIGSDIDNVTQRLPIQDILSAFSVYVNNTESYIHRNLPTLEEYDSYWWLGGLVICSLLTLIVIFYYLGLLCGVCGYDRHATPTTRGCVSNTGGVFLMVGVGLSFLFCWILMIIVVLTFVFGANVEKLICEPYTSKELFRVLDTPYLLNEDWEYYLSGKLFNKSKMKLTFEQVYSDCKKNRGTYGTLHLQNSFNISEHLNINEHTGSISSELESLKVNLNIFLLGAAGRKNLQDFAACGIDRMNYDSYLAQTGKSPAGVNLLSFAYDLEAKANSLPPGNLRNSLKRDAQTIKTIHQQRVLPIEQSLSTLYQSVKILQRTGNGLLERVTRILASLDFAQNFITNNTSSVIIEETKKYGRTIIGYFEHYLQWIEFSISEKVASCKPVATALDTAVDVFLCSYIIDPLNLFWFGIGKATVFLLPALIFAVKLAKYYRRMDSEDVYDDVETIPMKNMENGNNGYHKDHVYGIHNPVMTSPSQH

B1: IgG RW03 (antibody, V domains shown)
VH: EVQLVESGGGLVQPGGSLRLSCAASGFNLSSSSIHWVRQAPGKGLEWVAYIYPYYSYTYYADSVKGRFTISADTSKNTAYLQMNSLRAEDTAVYYCARFGSVAGFDYWGQGTLVTVSS
VL: DIQMTQSPSSLSASVGDRVTITCRASQSVSSAVAWYQQKPGKAPKLLIYSASSLYSGVPSRFSGSRSGTDFTLTISSLQPEDFATYYCQQYSHAGHLFTFGQGTKVEIKR
notes: Human IgG1 (hG1) with kappa light chain (hK); variable region of Fab RW03 (Library F); also called RW03 IgG; lIgG RW03
B2: phage-Fab RW03 (Fab, V domains shown)
VH: B1 VH
VL: DIQMTQSPSSLSASVGDRVTITCRASQSVSSAVAWYQQKPGKAPKLLIYSASSLYSGVPSRFSGSRSGTDFTLTISSLQPEDFATYYCQQYSHAGHLFTFGQGTKVEIK
notes: also called phage-Fab clone RW03; RW03 clone
B3: IgG RW01 (antibody, V domains shown)
VH: EVQLVESGGGLVQPGGSLRLSCAASGFNIYYYGSMHWVRQAPGKGLEWVASISPYYGSTYYADSVKGRFTISADTSKNTAYLQMNSLRAEDTAVYYCARHASSGYGHYAVYGIDYWGQGTLVTVSS
VL: DIQMTQSPSSLSASVGDRVTITCRASQGSSYVAWYQQKPGKAPKLLIYSASYLYSGVPSRFSGSRSGTDFTLTISSLQPEDFATYYCQQGVWSLITFGQGTKVEIKR
notes: also called RW01 IgG; lIgG RW01

Key:
[1] = molecular target: T1, human CD133 (GenBank Accession O43490); test: flow cytometry, serial dilutions on HEK293-CD133 cells, anti-human Fab'2 secondary antibody
[2] = molecular target: T1, human CD133 (GenBank Accession O43490); test: flow cytometry on CD133-expressing cells (cell line not given), IgG alone, secondary antibody against human Fc
[3] = molecular target: T1, human CD133 (GenBank Accession O43490); test: competitive flow cytometry on CD133-expressing cells first incubated with 25 nM Fab RW01, secondary antibody against human Fc
[4] = molecular target: T1, human CD133 (GenBank Accession O43490); test: cell-based phage ELISA (OD450)
Procedure: Following cell selections, round four output phage for each library was plated for single colonies. These colonies were grown up in an overnight culture and tested for binding to cells by cell-based ELISA. The plates were read and OD450 nm was detected and recorded. The assay measured binding of clones to CD133-overexpressing HEK293-CD133 cells (under “CD133” column headers) vs parental HEK293 cells (under “HEK293” column headers).
After four rounds of positive and negative selection, serial dilutions were made of the round four output phage (10E-1 to 10E-3) for each library and used to infect XL1-blue cells. The infected cells were plated for isolating single colonies to be used in a clonal cell-based ELISA for isolating CD133-specific binders.

Row | Binder | EC50 [1] | EC50 (read off the curve) [2] | EC50 (read off the curve) [3] | fold binding to HEK293-CD133 cells vs HEK293 cells [4]
1 | B1 | 0.5 nM | ~1 nM | ~1 nM | –
2 | B2 | – | – | – | ≥ 1.5 fold
3 | B3 | 2.5 nM | – | – | –

— US20190330362A1 (GOVERNING COUNCIL OF THE UNIVERSITY OF TORONTO, published 2019)
